Results reported in patent US20060177816A1, “Cellular RhoGTPase activation assay” (Abbott GmbH & Co. KG., priority 2005, published 2006).
Blank lines part the entries; values can stand above or below the molecule they belong to. alkaline phosphatase tag = alkaline phosphatase tag, N-terminal fusion

Key:
[1] = molecular target: human Nogo receptor (hNgR) (human) (UniProt Q9BZR6); assay: cell-based or functional assay
Rho = assay: RBD assay (pulldown of GTP-bound Rho with GST-RBD beads, immunoblot); type: cell-based, human
Description: The HEK cells either remained unstimulated or were stimulated (e.g. with LPA or AP-Nogo-66) for a period of from 5 to 10 minutes after a 2-hour starvation period (by incubation with serum-free RPMI-Glutamax). HEK cells (1×10^6 per well) were cultured in 6-well plates (volume of mixture 1000 μl/well). Before the stimulation, a particular volume appropriate for the concentration of the AP-Nogo66 batch employed (e.g. 100 μl of medium was removed from each well and the volume was correspondingly made up again to 1000 μl with AP-Nogo66, to result in a defined final concentration of AP-Nogo66 on the cells. Following the stimulation, the AP-Nogo66 medium solution was completely removed by aspiration. The cells were then washed with ice-cold PBS (phosphate-buffered saline) and lyzed in 50 mM Tris, pH 7.5 (comprising NaCl (500 mM), EDTA (1 mM), MgCl2 […], 10% glycerol, NaF (5 mM), DTT (1 mM), 1% Nonidet P-40 in combination with the protease inhibitors PMSF (1 mM), leupeptin (1 μg/ml) and aprotinin (1 μg/ml)).
Cell lysates (e.g. from HEK293-RhoA and HEK293-RhoA/NgR/p75; 400 μg of total protein in each case) were incubated with 40 μg of the GST-RBD beads (comprising recombinant fusion protein composed of glutathione S-transferase and RBD with amino acids 7 to 89 of human rhotekin) at 4° C. for 1 hour. After the beads had been washed 3 times with lysis buffer, the bound protein (GTP-bound, biochemically active Rho) was analyzed by SDS-PAGE and immunoblotting. The immunoblotting was carried out with anti-Rho antibody and the visualization took place by incubation with a horseradish peroxidase-conjugated secondary antibody and chemiluminescence enhancer (ECL).
It was investigated, using the RBD assay described above, whether Rho is activated after stimulation of NgR with myelin proteins, such as Nogo-66, in HEK293-Rho cells which express NgR and p75 (HEK293-Rho/NgR/p75). The results are depicted in appended FIG. 5a.

[2] = system: HEK293-RhoA/NgR/p75 cells; assay: ACR (actin cytoskeletal rearrangement) assay with image analysis; type: cell-based, human
Description: 1×10^4 cells were transferred into microtiter plates with 96 wells two days before the stimulation. The cells were stimulated with a suitable reagent (e.g. LPA or AP-Nogo-66) in culture medium (RPMI-Glutamax) comprising 5% FCS. After a stimulation period of 5 to 10 minutes, the activation was stopped with cold PBS. The cells were fixed with 3-4% strength paraformaldehyde solution, permeabilized with PBS comprising 0.2% Triton X-100, and incubated with phalloidin Alexa 568 or 488 for 30-45 minutes. Incubation with DAPI additionally took place for 5 minutes for nuclear staining. The cells were visualized with the aid of an epifluorescence microscope (Axiovert 25). Fluorescence micrograms were recorded using a cooled Zeiss CCD camera.
HEK293-Rho/NgR/p75 cells were transferred into microtiter plates with 96 wells (Biocoat Poly D-Lysine Black Clear Plates from Becton Dickinson, Heidelberg, order number 356640). After a starvation period (cf. above) of 2 hours, the cells were preincubated with PI-PLC (1 U/ml) for 30 minutes or not treated. The cells were subsequently stimulated with LPA or AP-Nogo-66 or remained unstimulated. Fluorescence micrograms were obtained as described above. Representative appearances are depicted in FIG. 5b.
Fluorescence micrograms (FIG. 6a) obtained from an ACR assay carried out according to the invention (stimulation of HEK293-RhoA/NgR/p75 cells with 10 μg/ml AP-Nogo-66) were investigated with various high content screening systems, e.g. with the Atto Pathway HT image analysis system from BD Bioimages (Becton Dickinson) or the Discovery 1 from Molecular Devices, for changes in the cell morphology. […] The Pathway HT was used to determine the number of so-called cytoplasmic vertices (cytoplasmic vertices are a measure of changes in the cytoskeleton which describes inter alia the contraction of actin filaments and the formation of stress fibers). The result of this evaluation is depicted in FIG. 6c.
To analyze the reported morphological changes, 1×10^4 cells per well were seeded into 96-well plates, fixed, the actin filaments were stained with FITC-labelled Alexa Phalloidin and the nuclei were visualized with DAPI. The plates were subjected to our high-content screening (HCS) system, the Pathway HT (Becton Dickinson) and the corresponding image analysis software Attovision. Analyzing the perimeter of the actin cytoskeleton achieved the most significant difference when comparing stimulated with unstimulated samples. The perimeter of the actin cytoskeleton is calculated as “cytoplasmic verticies”, which is a measure for the number of turns or changes in direction that lines outlining the cell follow.

NgR = molecular target: T1, NgR (Homo sapiens, UniProt Q9BZR6); assay: Preliminary experiments on functional activity of tagged Nogo66 ligands; details: not shown
T1 sequence (Q9BZR6 27-447): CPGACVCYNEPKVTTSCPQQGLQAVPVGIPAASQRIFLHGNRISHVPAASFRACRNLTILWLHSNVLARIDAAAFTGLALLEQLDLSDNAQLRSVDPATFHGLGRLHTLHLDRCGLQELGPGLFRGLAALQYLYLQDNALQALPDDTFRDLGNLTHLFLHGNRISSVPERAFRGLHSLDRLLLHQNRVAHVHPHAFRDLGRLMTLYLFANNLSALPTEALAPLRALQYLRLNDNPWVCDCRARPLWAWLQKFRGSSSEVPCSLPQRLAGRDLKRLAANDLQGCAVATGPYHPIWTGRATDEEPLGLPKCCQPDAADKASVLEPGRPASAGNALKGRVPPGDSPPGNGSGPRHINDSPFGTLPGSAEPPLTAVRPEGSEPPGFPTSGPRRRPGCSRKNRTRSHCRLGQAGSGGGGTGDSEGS

[3] = HEK293-RhoA/NgR/p75 cells, stimulated for 5 minutes

maximal reduction of the average perimeter (cytoplasmic vertices) against untreated control cells, at 20 nM AP-Nogo66 [1]: 80 to 90%
Molecule: AP-Nogo66 (Nogo-66, comprising an N-terminal alkaline phosphatase Tag) (from UniProt Q9NQC3 1055-1120) (ligand)

functional activity (NgR): functionally active
B2: AP-Nogo66: Nogo-66, comprising an N-terminal alkaline phosphatase Tag; NgR receptor ligand (protein)
chain: {alkaline phosphatase tag}-RIYKGVIQAIQKSDEGHPFRAYLESEVAISEELVQKYSNSALGHVNCTIKELRRLFLVDDLVDSLK
modifications: not fully specified
notes: Nogo-66, comprising an N-terminal alkaline phosphatase Tag; NgR receptor ligand
Rho activation after release of NgR from the cell membrane (Rho; HEK293-RhoA/NgR/p75 cells treated with 1 U/ml PI-PLC 30 minutes before stimulation): no Rho activation | Rho activation (Rho; [3]): induced Rho activity | time to maximum of morphological changes ([2]; 20 nM AP-Nogo66): 15 min | maximal reduction of the average perimeter (cytoplasmic verticies) in comparison to untreated control cells ([2]; 20 nM AP-Nogo66, 10 min stimulation, Attovision analysis): 80-90% | time to morphological changes ([2]; 20 nM AP-Nogo66, onset of actin cytoskeletal rearrangement): ≤ 5 min | morphological change of the cells after stimulation ([2]; 10 μg/ml AP-Nogo-66, mean cell length and cytoplasmic vertices): significant, optically analyzable morphological change | morphological changes after PI-PLC treatment and stimulation ([2]; PI-PLC (1 U/ml) preincubation for 30 minutes): not observable

Further lines, the molecule ahead of its results:

Molecule: L-alpha-lysophosphatidic acid [LPA, reference compound]
Rho activation (Rho; [3]): rapid activation of Rho | Rho activation (Rho; HEK wild-type cells, LPA stimulation (data not shown)): rapid activation of Rho

Molecule: C[C@@H](N)[C@H]1CC[C@H](C(=O)Nc2ccncc2)CC1 [Y-27632, reference compound]
inhibition of AP-Nogo66 induced Rho-dependent cell rounding and shrinkage ([2]; 15 min pre-treatment before stimulation with 20 nM AP-Nogo66): abolished AP-Nogo66 induced Rho-dependent cell rounding and shrinkage in a dose-dependent manner | IC50 for the inhibitory effect on the actin cytoskeletal rearrangement ([2]; 15 min pre-treatment before stimulation with 20 nM AP-Nogo66, no number given): ranges in the order of magnitude of what had described for this broadly used compound

B1: GST-Nogo66: otherwise tagged Nogo66 (GST tag) (protein)
chain: RIYKGVIQAIQKSDEGHPFRAYLESEVAISEELVQKYSNSALGHVNCTIKELRRLFLVDDLVDSLK
modifications: not fully specified (N-terminus); also: GST tag, end not given here (dimerising)
functional activity (NgR): not
